Test results as given in publication PMC9574375 (Cancer Research, 2022).
Where two headings read alike, the source gives them in different places.

Columns and labels:
[1] = target: the molecule itself; assay: non-reducing SDS-PAGE and immunoblot or Coomassie staining
[2] = target: the molecule itself; assay: as above; remark: listed apart in the source

Protein	binding result [1]	binding result [2]
GST-tagged RET CLD4-CRD (amino acids 382–635) D567N (domain or fragment, human, UniProt P07949 382-635, looked up) QGPGAGVLLLHFNVSVLPVSLHLPSTYSLSVSRRARRFAQIGKVCVENCQAFSGINVQYKLHSSGANCSTLGVVTSAEDTSGILFVNDTKALRRPKCAELHYMVVATDQQTSRQAQAQLLVTVEGSYVAEEAGCPLSCAVSKRRLECEECGGLGSPTGRCEWRQGDGKGITRNFSTCSPSTKTCPNGHCDVVETQDINICPQDCLRGSIVGGHEPGEPRGIKAGYGTCNCFPEEEKCFCEPEDIQDPLCDELCR	binds	–
GST-tagged RET CLD4-CRD (amino acids 382–635), wild type (domain or fragment, human, UniProt P07949 382-635, looked up) QGPGAGVLLLHFNVSVLPVSLHLPSTYSLSVSRRARRFAQIGKVCVENCQAFSGINVQYKLHSSGANCSTLGVVTSAEDTSGILFVNDTKALRRPKCAELHYMVVATDQQTSRQAQAQLLVTVEGSYVAEEAGCPLSCAVSKRRLECEECGGLGSPTGRCEWRQGDGKGITRNFSTCSPSTKTCPDGHCDVVETQDINICPQDCLRGSIVGGHEPGEPRGIKAGYGTCNCFPEEEKCFCEPEDIQDPLCDELCR	–	binds
